From US20170233490A1 (Hoffmann-La Roche, published 2017) come the findings set out here.

Test in all cases: ELISA, coated antigen
Test [1] deals with T1, human HER2 Extracellular Domain (ECD) (human, UniProt P04626 23-652).
T1 construct: human recombinant, 69.6 kDa; also called Her2 ECD; HER2_ECD
How it is done:
(§1) For the ELISA the screening an antigen down format was used. […] Hybridoma Supernatant was added to the plates and incubated for 1 h at room temperature. Bound antibody was detected with a HRP-labeled F(ab′)₂ goat anti-mouse Fcγ (Dianova) and ABTS (Roche) was used as a HRP-substrate.
(§2) As negative controls the scaffold proteins TtSlyDcas and TgSlyDΔIF were used.

A further test addresses T2, TtSlyDcas-Her3.
T2 chain: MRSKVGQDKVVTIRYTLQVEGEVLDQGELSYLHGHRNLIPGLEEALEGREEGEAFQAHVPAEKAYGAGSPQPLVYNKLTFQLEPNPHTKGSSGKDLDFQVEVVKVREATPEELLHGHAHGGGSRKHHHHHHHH
As to the method:
as §1, §2

In the next test the target is T3, TgSlyDser-Her3.
T3 chain: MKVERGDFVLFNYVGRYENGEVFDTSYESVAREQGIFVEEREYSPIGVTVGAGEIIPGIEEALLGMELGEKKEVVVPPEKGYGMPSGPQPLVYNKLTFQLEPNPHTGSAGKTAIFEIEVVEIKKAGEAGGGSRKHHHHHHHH
As to the method: as §1, §2

The target of another test is T4, TtSlyDcas.
T4 construct: scaffold without hairpin insert, negative control
T4 chain: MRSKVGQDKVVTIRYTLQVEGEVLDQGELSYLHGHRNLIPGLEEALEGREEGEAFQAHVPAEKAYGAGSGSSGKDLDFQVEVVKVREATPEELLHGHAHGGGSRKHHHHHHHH
How it is done: as §1, §2

The next test has as its target T5, TgSlyDcys-Her3.
T5 chain: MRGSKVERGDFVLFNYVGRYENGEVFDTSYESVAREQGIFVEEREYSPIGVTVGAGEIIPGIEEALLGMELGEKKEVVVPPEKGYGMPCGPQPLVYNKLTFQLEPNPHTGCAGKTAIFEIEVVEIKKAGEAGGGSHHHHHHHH
As to the method: as §1, §2

Another test concerns the target T6, TgSlyDΔIF.
T6 construct: scaffold without hairpin insert, negative control
T6 chain: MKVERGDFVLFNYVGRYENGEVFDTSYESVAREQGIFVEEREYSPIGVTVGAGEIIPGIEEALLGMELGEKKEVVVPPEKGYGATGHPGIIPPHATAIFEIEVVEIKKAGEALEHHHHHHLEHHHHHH
How it is done: as §1, §2

The target of another test is T7, TtSlyDcys-Her3.
T7 chain: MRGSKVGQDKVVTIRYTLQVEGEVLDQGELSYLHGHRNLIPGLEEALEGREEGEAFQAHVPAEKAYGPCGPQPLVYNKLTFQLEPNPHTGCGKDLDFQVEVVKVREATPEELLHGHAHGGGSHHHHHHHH
As to the method: as §1, §2

B1: anti-HER3/HER4 antibody M-05-74 (antibody, V domains shown)
VH: QVQLQQSGAELAKPGASVKMSCKTSGYTLTDYWIHWVKQRPGQGLEWIGYINPYTGYTESNQKFKDKATLTADKSSNTAYIQLSSLTSEDSAVYYCARPYYYGDYWGQGTTLTVSS
VL: QIVLTQSPAIMSASPGERVTITCSASSSVSYMHWFQQKPGTSPKLLIYSTSNLASGVPARFSGSGSGTSYSLTISRMEAEDAATYYCQQRSSYPFTFGSGTKLEIK
notes: murine monoclonal IgG from hybridoma (supernatant or purified), bivalent; also called M-074; M-5-74
On to B1, for which the ELISA signal in test [1] is 0.02; with TtSlyDcas-Her3, 3.13; in the test with TgSlyDser-Her3, 3.16; in the test with TtSlyDcas it was 0.023; with TgSlyDcys-Her3 it was 3.16; with TgSlyDΔIF, 0.02. This molecule also showed an ELISA signal with TtSlyDcys-Her3 of 3.15.
